Assay results reported in patent US7608691B2, “Antibodies against IL-16 antagonist peptides” (Trustees of Boston University, priority 1999, dated 2009).
Substitutions are numbered along the chain they refer to.

B1: C-12: rIL-16 mutant with deletion of 12 C-terminal residues, retaining the RRKS motif (protein)
chain: SAASASAASDVSVESTAEATVCTVTLEKMSAGLGFSLEGGKGSLHGDKPLTINRIFKGAASEQSETVQPGDEILQLGGTAMQGLTRFEAWNIIKALPDGPVTIVIRRKS
B2: C-16: rIL-16 mutant terminating at Ile^105, deleting RRKS and succeeding downstream residues (protein)
chain: SAASASAASDVSVESTAEATVCTVTLEKMSAGLGFSLEGGKGSLHGDKPLTINRIFKGAASEQSETVQPGDEILQLGGTAMQGLTRFEAWNIIKALPDGPVTIVI
B3: N-12: rIL-16 construct with deletion of 12 N-terminal amino acids (protein)
chain: VESTAEATVCTVTLEKMSAGLGFSLEGGKGSLHGDKPLTINRIFKGAASEQSETVQPGDEILQLGGTAMQGLTRFEAWNIIKALPDGPVTIVIRRKSLQSKETTAAGDS
B4: N-22: rIL-16 construct with deletion of 22 N-terminal amino acids (protein)
chain: TVTLEKMSAGLGFSLEGGKGSLHGDKPLTINRIFKGAASEQSETVQPGDEILQLGGTAMQGLTRFEAWNIIKALPDGPVTIVIRRKSLQSKETTAAGDS
B5: Arg^107 alone: rIL-16 point mutation Arg^107 to alanine (protein)
chain: SAASASAASDVSVESTAEATVCTVTLEKMSAGLGFSLEGGKGSLHGDKPLTINRIFKGAASEQSETVQPGDEILQLGGTAMQGLTRFEAWNIIKALPDGPVTIVIRAKSLQSKETTAAGDS
B6: Arg^106 alone: rIL-16 point mutation Arg^106 to alanine (protein)
chain: B5 chain with R106A, A107R
B7: Arg^106 plus Arg^107: rIL-16 point mutation Arg^106 plus Arg^107 to alanine (protein)
chain: B5 chain with R106A
B8: native rIL-16: Recombinant human IL-16, 121 C-terminal amino acids of pro-IL-16, produced in E. coli (protein)
chain: B5 chain with A107R

Experiments:
[1] = molecular target: T1, natural and recombinant human IL-16 (Homo sapiens, UniProt Q14005); settings: cited from earlier work
T1 sequence (Q14005 1212-1332 limits assumed): B5 chain with A107R

murine IL-16 = molecular target: T2, murine IL-16 (Mus musculus, UniProt O54824); settings: cited from earlier work
T2 sequence (O54824 1205-1322 T1262D/E1263R/Q1264T limits assumed): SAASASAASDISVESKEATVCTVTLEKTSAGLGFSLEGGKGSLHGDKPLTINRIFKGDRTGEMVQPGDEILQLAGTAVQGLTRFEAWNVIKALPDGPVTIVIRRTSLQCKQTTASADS

IL-16 = molecular target: T3, IL-16 (Homo sapiens, UniProt Q14005); assay: Modified Boyden chamber chemotaxis assay: inhibition of IL-16-stimulated T lymphocyte motility; assay type: cell-based; settings: human T lymphocytes; rIL-16 10^-9, 10^-10 or 10^-11 M; peptide 10 μg/ml; 4 h
T3 construct: Recombinant human IL-16 corresponding to the 121 C-terminal amino biologically active cytokine cleaved from natural pro-IL-16; polyhistidine (pET-30 LIC) (N, cleaved yes); made in house; host or cells: E. coli
T3 sequence (Q14005 1212-1332): B5 chain with A107R
Procedure: (§1) The mononuclear cell layer was washed with medium 199 (M. A. Bioproducts, Walkersville, Md.) supplemented with 0.4% bovine serum albumin, 25 mM HEPES buffer, and 100 U/ml of penicillin and 100 μg/ml streptomycin (M199-HPS). Samples were enriched for T lymphocytes by nylon wool adherence as described (Julius, et al., Eur. J. Immunol. 3:645, 1973). The nonadherent cells were >95% CD3^+ as determined by flow cytometry.
Recombinant human IL-16 corresponding to the 121 C-terminal amino biologically active cytokine cleaved from natural pro-IL-16 was produced in E. coli as a polyhistidine fusion protein using the expression vector pET-30 LIC (Novagen, Madison, Wis.). Following lysis of transformed bacteria, the protein was purified by metal chelation chromatography and the N-terminal polyhistidine tag was removed by cleavage with enterokinase.
A series of oligopeptides derived from the 16 C-terminal of human IL-16 residues were prepared (FIG. 1) and tested for their ability to […] the T lymphocyte motility using a modified Boyden chemotaxis chamber assay.
Human T lymphocytes were loaded in the upper wells, and rIL-16 at concentrations of 10^−9 M, 10^−10 M or 10^−11 M was loaded in the lower wells, in the presence or absence of two 8-mer peptides corresponding to amino acids Arg^106 to Lys^113 (SEQ ID NO:24), and Glu^114 to Ser^121 (SEQ ID NO:46) of IL-16. […] To further define the residues mediating inhibition, the eight residue sequence from Arg^106 to Lys^113 was divided into RRKS (SEQ ID NO:2) and LQSK (SEQ ID NO:48).

[2] = molecular target: HIV-1 gp120 (strain HIV-13B) (Human immunodeficiency virus type 1 group M subtype B, UniProt P04578); settings: gp120 0.5, 1.0, 5.0 μg/ml; peptide 10 μg/ml
Procedure: (§2) Cells were suspended (5×10^6 cells/ml) in M199-HPS and loaded into the upper wells, separated by an 8 μm pore size nitrocellulose membrane from lower wells. […] After a 4 h incubation at 37° C., the membranes were removed and stained with hematoxylin, dehydrated by sequential washes in ethanol and propanol, then washed in xylene to clarify the filter for cell counting by light microscopy. Cell migration was quantified by counting the number of cells in the filter that had moved beyond a depth of 50 μm in five separate fields in duplicate wells for all conditions. Cell counts were compared with unstimulated control cell migration which was normalized to 100%. Results are expressed as mean % control migration and the data analyzed for statistical significance (P<0.05) by Student=s t test.

Leu 3a mAb = assay: Chemotaxis assay: T cell migration in response to anti-CD4 mAb Leu 3a with peptide; assay type: cell-based; settings: Leu 3a 0.5, 1.0, 5.0 μg/ml; peptide 10 μg/ml
Procedure: as §2

human T lymphocytes = assay: Chemotaxis assay: chemoattractant activity of mutated rIL-16; assay type: cell-based; settings: 10^-8 to 10^-11 M
Procedure: as §1
The native IL-16 expression vector (pET-30/L-16^121) was used as a template for PCR mutagenesis to create four recombinant IL-16 (rIL-16) mutant constructs with progressive four amino acid deletions at the C-terminus (C-4 to C-16), as well as deletions of 12 or 22 N-terminal residues. Two double deletion constructs lacking the first 12 or 22 N-terminal residues as well as the last 16 C-terminal residues of IL-16 were also produced. Point mutations in C-terminal residues of rIL-16 were generated by site-directed mutagenesis using the Stratagene Quick Change Kit (Stratagene, La Jolla, Calif.) according to the manufacturer=s specifications. The point mutations included alanine substitution for Arg^106, Arg^107, and Arg^106 plus Arg^107.
IL-16 mutant constructs were created with progressive deletions of 4 C-terminal amino acids from C-4 through C-16 (FIG. 4). The C-12 construct terminates at Ser^108, retaining the RRKS motif. The C-16 construct terminates at Ile^105, deleting RRKS and succeeding downstream residues. These mutant IL-16 molecules were tested in chemotaxis assays.

[3] = tested on: Mixed Lymphocyte Reaction; assay: Inhibition of the one way mixed lymphocyte reaction (MLR); assay type: cell-based, human; settings: for capacity to inhibit the MLR: responder T lymphocytes pre-treated, 10^-8 to 10^-11 M
Procedure: Stimulator cells for mixed lymphocyte reactions were prepared by incubating PBMC (10^6/ml) with 25 μg/ml mitomycin C for 30 min. The cells were then washed four times with RPMI 1640 medium supplemented with 25 mM HEPES buffer, 100 U/ml penicillin, and 100 μg/ml streptomycin (RPMI 1640-HPS), then resuspended in RPMI 1640-HPS supplemented with 10% fetal bovine serum (complete medium) at 10^6 cells/ml. Responder cells were prepared from an unrelated donor, suspended in complete medium at 10^6 cells/ml, and pre-incubated (1 h, 37° C.) with control buffer, or with rIL-16 or mutated rIL-16 constructs (10^−9 M to 10^−11 M). Stimulator cells were then added (1:1) and the cell mixtures were transferred in quadruplicate to 96-well round-bottom plates. Cell cultures were pulsed with [^3H] thymidine on day 5, harvested with a Titertek cell harvester, and counted in a Becton Dickinson scintillation counter on day 6. Results are expressed as mean % cpm above background. SEM.
To determine whether other biological activities of IL-16 are mediated by the C-terminal domain, the native and mutated rIL-16 constructs were tested for their capacity of inhibiting the one way MLR. Responder T lymphocytes were pre-treated with rIL-16 or control buffer, then cultured with mitomycin C-treated stimulator PBMC from an unrelated donor. Pre-treatment with 10^−8 M native rIL-16 reduced thymidine incorporation on day 6 by nearly 70%, compared with untreated cells.

Row | Molecule | inhibition of IL-16-stimulated T cell migration (IL-16) | chemoattractant activity of mutated rIL-16 (human T lymphocytes) | also measured
1 | RRKSLQSKETTAAGDS [Arg106 to Ser121, synthetic oligopeptide corresponding to the 16 C-terminal amino acids of human IL-16] | – | – | inhibition of chemoattractant activity of natural and recombinant human IL-16 [1]: inhibit the chemoattractant activity; inhibition of chemoattractant activity of murine IL-16 (murine IL-16): inhibit the chemoattractant activity
2 | RRKSLQSK [SEQ ID NO:24] | inhibited IL-16 | – | –
3 | RSQRLK [SEQ ID NO:47, reference compound] | no inhibitory activity | – | –
4 | RRKSLQ | inhibited IL-16-stimulated T cell migration | – | –
5 | RRAS | inhibited IL-16 as effectively as the native RRKS | – | –
6 | RRKA | inhibited IL-16 as effectively as the native RRKS | – | –
7 | ETTAAGDS [SEQ ID NO:46] | only the Arg^106 to Lys^113 peptide (SEQ ID NO:24) inhibited IL-16 | – | –
8 | RRKS | inhibited IL-16 chemoattractant activity | – | blocking of cell migration in response to HIV-1 gp120 [2]: not blocked; blocking of cell migration in response to divalent anti-CD4 mAb Leu 3a (Leu 3a mAb): not blocked
9 | LQSK | Only RRKS (SEQ ID NO:2) inhibited IL-16 chemoattractant activity | – | –
10 | B1 | – | active as native rIL-16 | –
11 | B2 | – | completely eliminated the chemoattractant activity | shift of the dose response of MLR inhibition versus native rIL-16 [3]: ~1 log; capacity to inhibit the MLR [3]: nearly as active as native rIL-16
12 | B3 | – | comparable to native IL-16 | capacity to inhibit the MLR [3]: reduced but not eliminated
13 | B4 | – | comparable to native IL-16 | capacity to inhibit the MLR [3]: reduced but not eliminated
14 | B5 | – | completely abrogated chemoattractant activity | –
15 | B6 | – | retained full activity | –
16 | B7 | – | completely abrogated chemoattractant activity | –
17 | B8 | – | – | reduction of thymidine incorporation in MLR compared with untreated cells ([3]; pre-treatment with 10^-8 M, day 6): ~70%
